These results are taken from paper PMC2920069, “KTN (RCK) Domains Regulate K^+ Channels and Transporters by Controlling the Dimer-Hinge Conformation” (Structure(London, England:1993), 2009).

Data set [1] concerns the molecule itself. The experiment in a line: SEC-MALS; size exclusion chromatography with in-line MiniDAWN TREOS light scattering and refractive index detection; 50 mM HEPES pH 7.5, 150 mM KCl, 1 mM DTT or TCEP; with and without GSH, S-lactoyl-GSH or N-ethylsuccinimido-S-glutathione and NAD+ or NADH (1 mM).
Data set [2] concerns the molecule itself. The experiment in a line: native gel or EMSA; blue native PAGE (Novex 4-16% BisTris) of membranes solubilized with 1.5% dodecylmaltoside, without KefF; western blot with anti-His6; factor 1.8 for true mass:mobility-based mass.

B1: KefC-CTD:KefF fusion protein (complex, E. coli)
chain: RVIIAGFGRFGQITGRLLLSSGVKMVVLDHDPDHIETLRKFGMKVFYGDATRMDLLESAGAAKAEVLINAIDDPQTNLQLTEMVKEHFPHLQIIARARDVDHYIRLRQAGVEKPERETFEGALKTGRLALESLGLGPYEARERADVFRRFNIQMVEEMAMVENDTKARAAVYKRTSAMLSEIITEDREHLSLIQRHGWQGTEEGKHTGNMADEPETKPSSTSGGLVPRGSSGMILIIYAHPYPHHSHANKRMLEQARTLEGVEIRSLYQLYPDFNIDIAAEQEALSRADLIVWQHPMQWYSIPPLLKLWIDKVFSHGWAYGHGGTALHGKHLLWAVTTGGGESHFEIGAHPGFDVLSQPLQATAIYCGLNWLPPFAMHCTFICDDETLEGQARHYKQRLLEWQEAHHG
notes: synthetic flexible 12-residue linker with a thrombin motif that is not cleaved under the conditions used; KefF, ancillary subunit of the E. coli KefC system, full length; pET-28-derived vector; tag removed with thrombin overnight at 4 °C; also called KefC-CTD/KefF complex; fusion complex; source: E. coli BL21(DE3), purified (Ni-NTA with imidazole gradient, Superdex 200 gel filtration); not shown: …
Consider B1, for which the “stoichiometry N” value in data set [1] came to 2.

B2: full-length recombinant KefC (natural protein, E. coli, UniProt P03819 1-620, looked up)
chain: MDSHTLIQALIYLGSAALIVPIAVRLGLGSVLGYLIAGCIIGPWGLRLVTDAESILHFAEIGVVLMLFIIGLELDPQRLWKLRAAVFGCGALQMVICGGLLGLFCMLLGLRWQVAELIGMTLALSSTAIAMQAMNERNLMVTQMGRSAFAVLLFQDIAAIPLVAMIPLLATSSASTTMGAFALSALKVAGALVLVVLLGRYVTRPALRFVARSGLREVFSAVALFLVFGFGLLLEEVGLSMAMGAFLAGVLLASSEYRHALESDIEPFKGLLLGLFFIGVGMSIDFGTLLENPLRIVILLLGFLIIKIAMLWLIARPLQVPNKQRRWFAVLLGQGSEFAFVVFGAAQMANVLEPEWAKSLTLAVALSMAATPILLVILNRLEQSSTEEAREADEIDEEQPRVIIAGFGRFGQITGRLLLSSGVKMVVLDHDPDHIETLRKFGMKVFYGDATRMDLLESAGAAKAEVLINAIDDPQTNLQLTEMVKEHFPHLQIIARARDVDHYIRLRQAGVEKPERETFEGALKTGRLALESLGLGPYEARERADVFRRFNIQMVEEMAMVENDTKARAAVYKRTSAMLSEIITEDREHLSLIQRHGWQGTEEGKHTGNMADEPETKPSS
notes: E. coli KefC glutathione-gated K+ efflux system, full length; Blue native PAGE was done without KefF; Also used here as the wild-type KefC of the efflux experiments (plasmids pSM12 and pKefFKefCHis6 in E. coli MJF335); also called whole KefC channels; source: E. coli, overexpressed, bacterial membranes solubilized with 1.5% dodecylmaltoside
B2: the “stoichiometry N” value in data set [2] was 2.
